# B1: OR4K15 (parent)
# chain: GUUAACGGUCAUAGGCCAUGGAAACUAGGAGCACCAUUUCGCUGCCAGUGAAGAAAUGAACAAAGAAAAUCUGGGCCAGGCAGGCAUCAAAAGAAAUAGUCUUGCGCUCAACCAGAAAGUCUGUAAUCAUUUUAAGGGUA
# Variants of: B1
# Test: self-cleavage, relative activity (ratio to wild type); higher = more cleavage; in vitro, sequencing; the parent is a self-cleaving ribozyme
row,Variant,self-cleavage
1,C61U A98U,2.63
2,A60U A90G,1.34
3,A59G U97C,0.82
4,A59G U124C,0.78
5,A62C A118G,1.46
6,A62U A96G,1.69
7,A60G G80U,0.09
8,C61U U87C,1.35
9,A62G A94U,2.08
10,A62G G80C,0.13
11,A62G G80A,0.35
12,G58A A111G,0
13,A62G A111G,0.02
14,A60U A140U,1.59
15,A60U A140G,2.47
16,U57G U127C,1.33
17,A59G A82U,0.34
18,A59G A82G,0.45
19,A60G A67G,0.84
20,A60G U122C,0.84
21,A60G U122A,1.41
22,A62G A92G,1.22
23,A62U A94G,1.69
24,A60G G99U,0.38

row,Variant,self-cleavage
1,A59G A62U,1.32
2,A59G A62G,1.27
3,A62G G138A,1.04
4,A62G C88G,1.14
5,A60G G83A,1.3
6,U57G A78U,0.22
7,A60C,1.7
8,A60U,1.29
9,A60G,1.14
10,A59G A129G,1.16
11,A59G G93A,1.61
12,A59G U120A,1.23
13,A60G A78U,0.35
14,A60G A78C,0.17
15,A59G A126G,0.81
16,A60G A89U,1.5
17,A60G A89C,1.36
18,A60G A89G,1.55
19,A60C U87C,1.18
20,A59U A134U,1.92
21,A59U U131A,0.84
22,A60G U120C,0.82
23,A60G U120A,1.93
24,A60G U100A,0.52

row,Variant,self-cleavage
1,A62G A95U,2
2,A59G A60U,2.03
3,A59G A60G,0.59
4,A62U A82G,0.67
5,A60U A78G,0.23
6,C61U A64U,0.27
7,A60G A94G,1.37
8,A59U A78C,0.4
9,G58A U132C,1.64
10,A60G G79U,0.08
11,A59G U103A,0.62
12,A59U U120C,1.78
13,A59G C121A,2.81
14,A62U A92G,1.34
15,U57G U130C,0.44
16,C61U A62G,1.65
17,A59G C85U,0.51
18,G58U C107A,0.03
19,A60U U131C,0.75
20,A60G U108A,0.02
21,A60G U108C,0.03
22,A60U A86U,1.67
23,C61U G138A,1.4
24,A62G C77U,2.24

row,Variant,self-cleavage
1,A62G G75U,0.15
2,A62G G75C,0.18
3,A60G A66U,1.26
4,A60U G106A,0
5,A60U G106C,0
6,A59U A140G,2.05
7,A62C U108A,0.02
8,A62C A78C,0.31
9,C61U A86G,1.72
10,A60G A98G,0.55
11,A60C A89C,1.8
12,A59U A135G,1.33
13,A62G U70C,0.47
14,A62G U70A,1.59
15,A59G A94G,0.79
16,A59G U133C,1.79
17,A59G U133A,1.28
18,A59G A111U,0.07
19,A62G U124C,0.94
20,A62G U124G,1.13
21,A62C U87A,1.54
22,A62U A66G,1.58
23,G58U U124C,0.25
24,A59G G75A,0.22

row,Variant,self-cleavage
1,A60G C112A,0.02
2,A62G C76G,0.06
3,G58U A68G,0.92
4,A60U A114G,0.58
5,A60U A66G,1.63
6,A59U A60G,1.32
7,G58U A117G,1.89
8,A59G A125G,0.4
9,A62G G84C,0.49
10,A62G G84A,1.73
11,G58A A117G,1.66
12,A60C C71U,0.04
13,A62U A63U,1.75
14,G58A A60G,1.51
15,A60G A64G,1.24
16,C61U U120A,2.02
17,A60U U127C,0.92
18,A60U U127A,2.36
19,A60G A140U,1.06
20,A60G U70G,1.65
21,A60G U70C,0.8
22,A60G A82U,0.12
23,A60G A82C,0.08
24,A60G A82G,0.21

row,Variant,self-cleavage
1,A59G C71A,0.48
2,A60U A111G,0.05
3,A62G U133A,1.51
4,A62G U133C,1.14
5,U57G A129U,1.78
6,C61U A126G,0.55
7,A59U A69G,1.51
8,A62G U97C,1.34
9,A62G A67C,1.96
10,A62G A67G,0.96
11,A62G A67U,1.82
12,A60C A96G,1.77
13,C61U A91U,1.73
14,C61U A91G,0.87
15,A59U A118G,0.75
16,A60G A110C,0.4
17,A62G U103C,0.98
18,A62G U102C,1.19
19,A59G U127A,1.82
20,A59G U127C,0.7
21,A60U A117U,1.11
22,A62C U72C,0.26
23,A60G U132C,1.07
24,A62G U130G,1.06

row,Variant,self-cleavage
1,A62G U130C,1.15
2,A59G U139A,2.02
3,A59G U139C,1.4
4,A60G G74U,0.18
5,A59G A92G,1.22
6,A60U C113U,0.27
7,A60G U97A,1.69
8,A59U C61U,1.53
9,A60G A129U,1.14
10,A60G C109A,0.21
11,A59G A69G,1.26
12,C61U A89G,1.62
13,U57G A62G,0.83
14,A59U U70C,0.53
15,A59C A140U,1.46
16,A59C U100C,1.22
17,A59U A117U,0.89
18,A59U A117G,1.72
19,A62G C101U,0.41
20,A62G C112U,0.01
21,A62G U127C,0.38
22,A60G A69U,1.67
23,A62G A114U,0.02
24,A60U A82U,0.45

row,Variant,self-cleavage
1,A60U A82G,0.66
2,A59G G73A,0.17
3,A60U U133C,2.17
4,A59G A89U,0.98
5,G58A U130C,0.82
6,A60U G115A,0.29
7,A59G G80U,0.26
8,A62U A90G,1.26
9,A60G A117C,0.3
10,A60G A117G,1.55
11,A60G U124A,0.75
12,A59G A140G,1.25
13,G58U A111G,0.02
14,A60U U122A,2.08
15,A60G A86G,1.36
16,A62G G73A,0.15
17,A62G A82U,0.25
18,A62G A82G,0.49
19,G58A,1.13
20,G58U,1.43
21,A62G U132G,0.5
22,A62G U132C,1.59
23,A62G A86G,1.4
24,A62C A111G,0.03

row,Variant,self-cleavage
1,A60G U102C,1.4
2,A60G A95U,0.97
3,A60G A95G,1.63
4,A60G A95C,1
5,A59G A114G,0.26
6,A62C A67G,0.86
7,A60G C76U,0.13
8,A62C A66G,1.51
9,A60G C128U,1.12
10,U57G A64G,0.9
11,A60U A94G,1.5
12,A60U A68G,1.79
13,U57G A95G,2.15
14,A62G A89G,0.94
15,A62G A89U,1.85
16,A59G A118U,0.74
17,A59G A118G,0.75
18,A59U A111U,0.13
19,A59U A111G,0.02
20,A62G A91G,1.12
21,A62G A134U,1.75
22,A62G C81U,0.26
23,A62G A116G,0.64
24,A62G U108A,0.01

row,Variant,self-cleavage
1,A60C A68G,1.17
2,A60U A110G,0.24
3,A62G A110C,0.34
4,A62G A117C,0.69
5,A59U A64G,1.4
6,A62C A125G,0.58
7,A59C U127A,1.3
8,A62C A91G,1.31
9,A60G C107U,0
10,A60C U122A,1.74
11,A60U U124C,0.94
12,A62G U72C,0.24
13,A60G G106A,0.02
14,A60G A68C,1.57
15,A60G A90G,0.4
16,A60G A90U,1.84
17,A60G C85U,1.31
18,G58U U120A,1.17
19,A60G C113U,0.09
20,A60G C105A,0.04
21,A60G C105G,0.01
22,A59G A63G,1.4
23,A60U G138A,1.37
24,A60U A63G,0.71

row,Variant,self-cleavage
1,A59G A117U,0.95
2,A62U A86G,1.88
3,A62G C113U,0.14
4,A59G U131A,1.54
5,A59G U131C,0.71
6,A62C A69G,0.62
7,U57G A126G,0.52
8,A59G A68G,1.22
9,A60G C77U,2.13
10,C61U A110G,0.11
11,A62G C109U,0.53
12,U57G A68G,1.53
13,A59U A91U,1.44
14,A59U U122C,0.69
15,A60G A135U,1.41
16,A59G U132A,0.98
17,A59G G104A,0.06
18,A59G A135U,1.55
19,A60G C121U,1.48
20,A59U A89G,1.48
21,A59U A96C,0.81
22,A59U A96G,1.87
23,A62U A68G,1.4
24,G58A U102C,2.39

row,Variant,self-cleavage
1,A62C A94G,1.61
2,C61G,1.24
3,C61A,1.82
4,C61U,1.8
5,A59C A60G,0.56
6,A62C U132C,1.25
7,A60C U72A,0.21
8,G58A A67G,0.36
9,U57G U87A,1.47
10,C61A A91C,2.41
11,A62G A78C,0.37
12,A62G A78U,0.19
13,G58U A126G,0.8
14,A62G U120C,1.07
15,A62G U120G,0.84
16,A60C A135U,1.44
17,A62G A96U,1.26
18,A62C U120C,0.93
19,A59G C101A,0.13
20,A60C U130C,1.4
21,A62G U122C,1.27
22,A62G U122G,2.99
23,A60U C128U,0.44
24,G58A A96G,1.84

row,Variant,self-cleavage
1,A60G U87A,1.02
2,A59G C107U,0.01
3,A62U A64U,1.06
4,A62U A64G,1.46
5,A59G U72C,0.23
6,A59G A116C,0.07
7,A59G A96G,1.66
8,A59G A96U,0.71
9,A62G A68U,1.33
10,A59U A125G,0.43
11,A60U U120C,0.7
12,A59U U72C,0.17
13,A59U U72A,0.14
14,A62G A63G,1.21
15,G58U U102C,1.68
16,A62G C105A,0.03
17,A60C A95G,1.47
18,A59U U108A,0.02
19,A60G A114G,0.31
20,A62G A64U,1.23
21,A62G G106U,0.01
22,A62U A67G,1.19
23,A62U A67C,1.64
24,A59G A78G,0.26

row,Variant,self-cleavage
1,A60G A125U,2.64
2,A62C U122C,1.33
3,A59U A62C,1.11
4,A59U A62U,1.44
5,A59U U103C,0.31
6,A60C G123A,1.98
7,A62U A69G,0.81
8,G58A A95G,1.51
9,A62G A135U,1.67
10,A59G A67G,1.28
11,A62G A98G,0.4
12,A62G A98U,1.39
13,A59U A66G,1.31
14,A59C U122C,1.06
15,G58U A64G,1.2
16,A59U A82U,0.15
17,A59U A82G,0.43
18,C61U A140G,1.73
19,A59G U122C,1.1
20,A59U A126G,1.26
21,A60U A118G,1.58
22,A59C A68G,2.1

# Source: the RNAGym collection of RNA variant scans (doi:10.7554/elife.90254)
